Measurements as given in the Immune Epitope Database (IEDB).

Key:
[1] = target: HLA-C*07:02; test: IEDB peptide-MHC binding, purified MHC/direct/fluorescence; filed as Kd, often an IC50 or EC50 that approximates it; ≥ and ≤ were set here for values at or beyond the usual limits of such assays; settings: source organism: human gammaherpesvirus 4
[2] = target: HLA-C*14:02; test: as above; settings: source organism: human gammaherpesvirus 4
[3] = target: HLA-C*15:02; test: as above; settings: source organism: human gammaherpesvirus 4
[4] = target: HLA-A*32:07; test: IEDB peptide-MHC binding, purified MHC/competitive/fluorescence; filed as Kd, often an IC50 or EC50 that approximates it; ≥ and ≤ were set here for values at or beyond the usual limits of such assays
[5] = target: HLA-A*32:15; test: as above
[6] = target: HLA-A*68:23; test: as above
[7] = target: HLA-B*15:42; test: as above
[8] = target: HLA-B*27:20; test: as above
[9] = target: HLA-B*45:06; test: as above
[10] = target: HLA-B*83:01; test: as above
[11] = target: HLA-C*04:01; test: as above; settings: source organism: Mycobacterium tuberculosis CDC1551
[12] = target: HLA-C*03:03; test: IEDB peptide-MHC binding, purified MHC/direct/fluorescence; filed as Kd, often an IC50 or EC50 that approximates it; ≥ and ≤ were set here for values at or beyond the usual limits of such assays; settings: source organism: Clostridium novyi NT
[13] = target: HLA-C*05:01; test: as above; settings: source organism: Clostridium novyi NT
[14] = target: HLA-B*46:01; test: IEDB peptide-MHC binding, purified MHC/competitive/fluorescence; filed as Kd, often an IC50 or EC50 that approximates it; ≥ and ≤ were set here for values at or beyond the usual limits of such assays; settings: source organism: Clostridium novyi NT
[15] = target: HLA-C*06:02; test: as above; settings: source organism: Clostridium novyi NT
[16] = target: HLA-C*14:02; test: as above; settings: source organism: Clostridium novyi NT
[17] = target: HLA-A*01:01; test: IEDB peptide-MHC binding, purified MHC/direct/fluorescence; filed as Kd, often an IC50 or EC50 that approximates it; ≥ and ≤ were set here for values at or beyond the usual limits of such assays; settings: source organism: Cryptosporidium parvum
[18] = target: HLA-A*02:01; test: as above; settings: source organism: Cryptosporidium parvum
[19] = target: HLA-A*03:01; test: as above; settings: source organism: Cryptosporidium parvum
[20] = target: HLA-A*11:01; test: as above; settings: source organism: Cryptosporidium parvum
[21] = target: HLA-A*26:01; test: as above; settings: source organism: Cryptosporidium parvum
[22] = target: HLA-A*30:01; test: as above; settings: source organism: Cryptosporidium parvum
[23] = target: HLA-A*31:01; test: as above; settings: source organism: Cryptosporidium parvum
[24] = target: HLA-A*69:01; test: as above; settings: source organism: Cryptosporidium parvum
[25] = target: HLA-B*07:02; test: as above; settings: source organism: Cryptosporidium parvum
[26] = target: HLA-B*08:01; test: as above; settings: source organism: Cryptosporidium parvum
[27] = target: HLA-B*15:01; test: as above; settings: source organism: Cryptosporidium parvum
[28] = target: HLA-B*27:05; test: as above; settings: source organism: Cryptosporidium parvum
[29] = target: HLA-B*40:01; test: as above; settings: source organism: Cryptosporidium parvum
[30] = target: HLA-B*44:02; test: as above; settings: source organism: Cryptosporidium parvum
[31] = target: HLA-B*58:01; test: as above; settings: source organism: Cryptosporidium parvum
[32] = target: HLA-B*73:01; test: as above; settings: source organism: Cryptosporidium parvum Iowa II
[33] = source organism: human gammaherpesvirus 4
[34] = source organism: Mycobacterium tuberculosis CDC1551
[35] = source organism: Clostridium novyi NT

MMAKSNSPF
Kd [1]: 3.16 µM | Kd [2]: 0.008 µM | Kd [3]: ≥ 20 µM | Kd [4, 33]: 0.1 µM | Kd [5, 33]: 0.0428 µM | Kd [6, 33]: 0.0431 µM | Kd [7, 33]: ≥ 5 µM | Kd [8, 33]: 0.0487 µM | Kd [9, 33]: ≥ 5 µM | Kd [10, 33]: ≥ 5 µM

RPREATIIY
Kd [7, 34]: ≥ 5 µM | Kd [9, 34]: ≥ 5 µM | Kd [10, 34]: ≥ 5 µM | Kd [11]: ≥ 5 µM

ASMDNTSPM
Kd [12]: ≤ 0.001 µM | Kd [13]: ≥ 20 µM | Kd [4, 35]: 0.0269 µM | Kd [5, 35]: 0.223 µM | Kd [6, 35]: 0.0297 µM | Kd [7, 35]: ≥ 5 µM | Kd [8, 35]: 0.239 µM | Kd [9, 35]: ≥ 5 µM | Kd [14]: 0.0086 µM | Kd [10, 35]: 0.147 µM | Kd [15]: 0.57 µM | Kd [16]: 0.0364 µM

KHNSAESAK
Kd [17]: ≥ 20 µM | Kd [18]: ≥ 20 µM | Kd [19]: 12.3 µM | Kd [20]: ≥ 20 µM | Kd [21]: ≥ 20 µM | Kd [22]: 11.9 µM | Kd [23]: ≥ 20 µM | Kd [24]: ≥ 20 µM | Kd [25]: ≥ 20 µM | Kd [26]: ≥ 20 µM | Kd [27]: ≥ 20 µM | Kd [28]: ≥ 20 µM | Kd [29]: ≥ 20 µM | Kd [30]: ≥ 20 µM | Kd [31]: ≥ 20 µM | Kd [32]: ≥ 20 µM
